B cell (inhibition of IL4-stimulated B lymphocyte proliferation), IC50, IgE synthesis (inhibition of IL4-driven IgE secretion), IC50 and T cell (inhibition of IL4-stimulated T lymphocyte proliferation), IC50 data for one molecule are collected here from EP0730609B1.

In this assay the target is recombinant human IL4 (E. coli, non-glycosylated) (human) (UniProt P05112). The assay can be described thus: cell-based or functional assay.
recombinant human IL4 (E. coli, non-glycosylated) (human), sequence (P05112 25-153 limits assumed): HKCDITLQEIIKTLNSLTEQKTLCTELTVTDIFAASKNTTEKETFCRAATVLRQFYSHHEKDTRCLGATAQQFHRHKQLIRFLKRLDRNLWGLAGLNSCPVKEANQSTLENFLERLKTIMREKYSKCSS

B1: humanized 3B9 (IgG4) (antibody, from another filing, V domains shown)
VH: QVTLRESGPALVKPTQTLTLTCTFSGFSLSTSGMGVSWIRQPPGKGLEWLAHIYWDDDKRYNPSLKSRLTISKDTSRNQVVLTMTNMDPVDTATYYCARRETVFYWYFDVWGRGTPVTVSS
VL: IVMTQSPDSLAVSLGERATINCKASQSVDYDGDSYMNWYQQKPGQPPKLLIYAASNLESGVPDRFSGSGSGTDFTLTISSLQAEDVAVYYCQQSNEDPPRFGGGTKVEIKR
Take B1: the B cell (inhibition of IL4-stimulated B lymphocyte proliferation), IC50 is 0.079 nM; the IgE synthesis (inhibition of IL4-driven IgE secretion), IC50 turned out to be 0.406 nM; the T cell (inhibition of IL4-stimulated T lymphocyte proliferation), IC50 was determined as 0.04 nM.
